Common to all, as to assay: other fluorescence titration
Experiment [1] has as its target BIQG^6A, variant of BIQ with replacement A for the G at position 6.
In experiment [2] the target is BIQ, fluorescent reporter containing an IQ domain sequence derived from neuromodulin (UniProt P17677).
The target of experiment [3] is BIQG^6M, variant of BIQ with replacement M for the G at position 6.
Experiment [4] concerns the target BIQG^6A, variant of BIQ with replacement A for the G at position 6. This is another data set of the same source.
Experiment [5] has as its target BIQG^6R, variant of BIQ with replacement R for the G at position 6.
Experiment [6] deals with BIQ, fluorescent reporter containing an IQ domain sequence derived from neuromodulin (UniProt P17677). The source holds these as a separate data set.

Read-outs that look alike come from different tables or passages of the source.

Regarding “calmodulin (native CaM) (from UniProt P0DP23 1-149) (natural protein)”, the Kd (commonly the free concentration of one partner at which half of the binding sites on the other are occupied at equilibrium, for simple one-to-one binding) turned out to be 5400 nM in experiment [1]; 2400 nM in experiment [2]; 400 nM in experiment [3]; 900 nM in experiment [4]; 400 nM in experiment [5]; 2900 nM in experiment [6].
